Tests used:
[1] = biological target: T1, CD97 (ADGRE5) isoform 1 ectodomain, purified and biotinylated (human, UniProt P48960 21-552, limits assumed, biotinylated in vitro using the BirA enzyme); experiment: bead-based binding titration (biotinylated antigen on streptavidin beads, flow cytometry), 1:1 fit
T1 construct: the whole entry for isoform 1 is named here; also called CD97 isoform 1; Biotinylated CD97 isoform 1
T1 sequence: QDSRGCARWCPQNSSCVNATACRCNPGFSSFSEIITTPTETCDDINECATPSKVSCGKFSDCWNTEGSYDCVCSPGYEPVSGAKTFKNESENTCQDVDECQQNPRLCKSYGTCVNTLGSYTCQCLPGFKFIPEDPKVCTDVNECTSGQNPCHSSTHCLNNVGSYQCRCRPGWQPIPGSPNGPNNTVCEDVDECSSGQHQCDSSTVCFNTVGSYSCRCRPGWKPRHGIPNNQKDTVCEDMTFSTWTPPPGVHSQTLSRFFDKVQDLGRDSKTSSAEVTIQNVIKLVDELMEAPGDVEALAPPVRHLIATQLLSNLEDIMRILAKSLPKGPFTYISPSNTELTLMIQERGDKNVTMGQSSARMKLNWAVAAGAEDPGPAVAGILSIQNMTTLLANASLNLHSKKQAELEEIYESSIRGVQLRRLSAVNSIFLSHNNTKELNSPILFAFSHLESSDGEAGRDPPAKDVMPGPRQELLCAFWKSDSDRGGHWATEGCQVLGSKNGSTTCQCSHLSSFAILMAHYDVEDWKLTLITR

[2] = biological target: T2, CD97 (ADGRE5) isoform 2 ectodomain, purified and biotinylated (human, UniProt P48960 21-552, biotinylated in vitro using the BirA enzyme); experiment: as above
T2 construct: the whole entry for isoform 2 is named here; also called CD97 isoform 2
T2 sequence: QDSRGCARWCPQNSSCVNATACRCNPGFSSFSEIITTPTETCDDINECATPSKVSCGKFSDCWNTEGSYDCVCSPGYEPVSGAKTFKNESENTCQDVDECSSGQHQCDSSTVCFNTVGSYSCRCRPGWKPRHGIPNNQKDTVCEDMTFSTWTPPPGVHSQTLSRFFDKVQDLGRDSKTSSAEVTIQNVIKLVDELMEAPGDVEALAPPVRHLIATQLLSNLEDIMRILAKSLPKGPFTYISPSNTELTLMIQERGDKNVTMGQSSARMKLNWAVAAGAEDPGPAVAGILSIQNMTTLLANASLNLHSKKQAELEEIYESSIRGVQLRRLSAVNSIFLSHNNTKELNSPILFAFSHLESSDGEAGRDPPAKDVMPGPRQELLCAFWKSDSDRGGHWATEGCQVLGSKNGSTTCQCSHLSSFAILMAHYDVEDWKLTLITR

[3] = biological target: T1, CD97 (ADGRE5) isoform 1 ectodomain, …; experiment: bead-based binding assay: biotinylated CD97 isoform 1 on streptavidin beads, Fab titrated, flow cytometry MFI, 1:1 fit; EXPERIMENT 1
Description: (§1) KD values were determined from the curve fitting of a 1:1 binding model.

K519A = biological target: T3, K519A (human, UniProt P48960); experiment: cell-based binding assay: CD97 GAIN mutant transiently expressed on ExpiCHO cells, A8 Fab titrated, flow cytometry MFI, 1:1 fit; upper panel
T3 construct: transiently expressed on the surface of ExpiCHO cells, gated by anti-V5 tag staining; also called CD97 GAIN mutant K519A expressed on ExpiCHO cells
T3 sequence (receptor, looked up): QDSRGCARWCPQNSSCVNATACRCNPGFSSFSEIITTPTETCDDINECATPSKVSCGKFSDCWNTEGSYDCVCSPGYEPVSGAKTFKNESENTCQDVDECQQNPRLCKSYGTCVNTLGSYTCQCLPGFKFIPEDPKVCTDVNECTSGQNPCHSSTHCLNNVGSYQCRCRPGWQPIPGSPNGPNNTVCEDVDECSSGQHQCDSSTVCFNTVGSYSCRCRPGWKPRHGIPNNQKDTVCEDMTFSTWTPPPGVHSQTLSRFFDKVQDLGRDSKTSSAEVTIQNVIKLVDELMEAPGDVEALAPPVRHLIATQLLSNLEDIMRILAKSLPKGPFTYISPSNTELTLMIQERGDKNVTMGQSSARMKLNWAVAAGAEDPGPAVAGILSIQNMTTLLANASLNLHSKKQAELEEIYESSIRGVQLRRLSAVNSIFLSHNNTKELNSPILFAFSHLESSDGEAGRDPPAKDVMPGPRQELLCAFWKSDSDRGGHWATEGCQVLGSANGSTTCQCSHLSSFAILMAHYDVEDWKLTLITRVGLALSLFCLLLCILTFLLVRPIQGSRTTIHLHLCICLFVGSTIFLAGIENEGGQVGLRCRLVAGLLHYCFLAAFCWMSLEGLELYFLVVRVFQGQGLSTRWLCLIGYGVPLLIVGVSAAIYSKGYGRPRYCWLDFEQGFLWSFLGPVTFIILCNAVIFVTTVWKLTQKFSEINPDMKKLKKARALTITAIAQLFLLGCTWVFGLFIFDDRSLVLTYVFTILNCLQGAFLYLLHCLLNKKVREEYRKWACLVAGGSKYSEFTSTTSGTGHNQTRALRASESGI
Description: as §1

B1: Antibody clone A8, Fab format (Fab, V domains shown)
VH: EVQLVESGGGLVQPGGSLRLSCAASGFTISSYSIHWVRQAPGKGLEWVASISPYYGSTSYADSVKGRFTISADTSKNTAYLQMNSLRAEDTAVYYCARSWYYYEQNPYWYQKEEQALDYWGQGTLVTVSS
VL: DIQMTQSPSSLSASVGDRVTITCRASQSVSSAVAWYQQKPGKAPKLLIYSASSLYSGVPSRFSGSRSGTDFTLTISSLQPEDFATYYCQQSVYSPVTFGQGTKVEIKR
notes: Fab; also called wild type A8
Kd [1]: 2.4 nM | Kd [2]: 2.2 nM | Kd [3]: 16 nM | Kd (K519A): 110 nM

From patent publication US20250051474A1, “ANTI-CD97 ANTIBODIES AND ANTIBODY-DRUG CONJUGATES” (New York University, priority 2023, published 2025)
